Where two headings read alike, the source gives them in different places.
Key:
Assay in all cases: cell-based or functional assay
[1] = target: T1, HA of A/Wilson Smith N/33 (H1N1) (influenza A virus, UniProt P03454 18-565)
[2] = target: HA of A/Beijing/262/95 (H1N1) (influenza A virus)
[3] = target: HA of A/Solomon Island/3/2006 (H1N1) (influenza A virus)
[4] = target: HA of A/California/07/2009 (H1N1) (influenza A virus)
[5] = target: HA of A/Hong Kong/8/68 (H3N2) (influenza A virus)
[6] = target: HA of A/Victoria/3/75 (H3N2) (influenza A virus)
[7] = target: HA of A/Shan dong/9/93 (H3N2) (influenza A virus)
[8] = target: HA of ca A/Panama/2007/99 (H3N2) (influenza A virus)
[9] = target: HA of ca B/Beijing/243/97 (victoria) (influenza B virus)
[10] = target: HA of B/Hong Kong/330/2001 (victoria) (influenza B virus)
[11] = target: HA of B/Malaysia/2506/2004 (victoria) (influenza B virus)
[12] = target: HA of B/Ohio/1/2005 (victoria) (influenza B virus)
[13] = target: HA of B/Yamanashi/166/98 (yamagata) (influenza B virus)
[14] = target: HA of B/Sichuan/379/99 (yamagata) (influenza B virus)
[15] = target: HA of B/Florida/4/2006 (yamagata) (influenza B virus)
[16] = target: T1, HA of A/Wilson Smith N/33 (H1N1); remark: listed apart in the source
[17] = target: HA of A/Puerto Rico/8/34 (H1N1) (influenza A virus, UniProt P03452 18-565)
[18] = target: HA of A/Beijing/262/95 (H1N1) (influenza A virus); remark: listed apart in the source
[19] = target: HA of ca A/New Caledonia/20/99 (H1N1) (influenza A virus)
[20] = target: HA of A/Solomon Island/3/2006 (H1N1) (influenza A virus); remark: listed apart in the source
[21] = target: HA of A/Brisbane/10/2010 (H1N1) (influenza A virus)
[22] = target: HA of A/Washington/24/2012 (H1N1) (influenza A virus)
[23] = target: HA of A/Bolivia/559/2013 (H1N1) (influenza A virus)
[24] = target: HA of ca A/Japan/57 (H2N2) (influenza A virus)
[25] = target: HA of ca A/mallard/Alberta/89/85 (H6N2) (influenza A virus)
[26] = target: HA of A/Hong Kong/8/68 (H3N2) (influenza A virus); remark: listed apart in the source
[27] = target: HA of A/Victoria/3/75 (H3N2) (influenza A virus); remark: listed apart in the source
[28] = target: HA of A/Shan dong/9/93 (H3N2) (influenza A virus); remark: listed apart in the source
[29] = target: HA of ca A/Wuhan/359/95 (H3N2) (influenza A virus)
[30] = target: HA of ca A/Panama/2007/99 (H3N2) (influenza A virus); remark: listed apart in the source
[31] = target: HA of A/California/7/2004 (H3N2) (influenza A virus)
[32] = target: HA of A/Wisconsin/67/2005 (H3N2) (influenza A virus)
[33] = target: HA of ca A/Perth/16/2009 (H3N2) (influenza A virus)
[34] = target: HA of A/Victoria/361/2011 (H3N2) (influenza A virus)
[35] = target: HA of A/Berlin/93/2011 (H3N2) (influenza A virus)
[36] = target: HA of A/Texas/50/2012 (H3N2) (influenza A virus)
[37] = target: HA of A/AmericanSomoa/4786/2013 (H3N2) (influenza A virus)
[38] = target: HA of A/Switzerland/9715293/2013 (H3N2) (influenza A virus)
[39] = target: HA of A/Palau/6759/2014 (H3N2) (influenza A virus)
[40] = target: HA of A/Minnesota/11/2010 (H3N2v) (influenza A virus)
[41] = target: HA of ca A/Brit. Columbia/CN-6/04 (H7N3-LP) (influenza A virus)

T1 sequence (P03454 18-565 limits assumed): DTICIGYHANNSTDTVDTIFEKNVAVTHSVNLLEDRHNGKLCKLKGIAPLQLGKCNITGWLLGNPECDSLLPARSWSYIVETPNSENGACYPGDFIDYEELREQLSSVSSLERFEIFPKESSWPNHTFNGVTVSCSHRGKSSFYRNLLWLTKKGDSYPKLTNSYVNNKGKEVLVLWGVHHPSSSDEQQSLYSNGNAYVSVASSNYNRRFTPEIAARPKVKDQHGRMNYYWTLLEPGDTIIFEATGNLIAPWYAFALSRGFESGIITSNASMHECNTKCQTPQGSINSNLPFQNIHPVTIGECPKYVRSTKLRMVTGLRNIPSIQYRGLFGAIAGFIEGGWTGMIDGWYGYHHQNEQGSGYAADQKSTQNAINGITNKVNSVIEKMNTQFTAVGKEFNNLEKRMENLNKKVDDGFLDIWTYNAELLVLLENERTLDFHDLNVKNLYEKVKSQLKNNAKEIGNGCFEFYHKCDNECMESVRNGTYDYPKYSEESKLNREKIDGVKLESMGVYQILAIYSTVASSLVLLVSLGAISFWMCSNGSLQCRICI
Sequence of HA of A/Puerto Rico/8/34 (H1N1) (P03452 18-565 limits assumed): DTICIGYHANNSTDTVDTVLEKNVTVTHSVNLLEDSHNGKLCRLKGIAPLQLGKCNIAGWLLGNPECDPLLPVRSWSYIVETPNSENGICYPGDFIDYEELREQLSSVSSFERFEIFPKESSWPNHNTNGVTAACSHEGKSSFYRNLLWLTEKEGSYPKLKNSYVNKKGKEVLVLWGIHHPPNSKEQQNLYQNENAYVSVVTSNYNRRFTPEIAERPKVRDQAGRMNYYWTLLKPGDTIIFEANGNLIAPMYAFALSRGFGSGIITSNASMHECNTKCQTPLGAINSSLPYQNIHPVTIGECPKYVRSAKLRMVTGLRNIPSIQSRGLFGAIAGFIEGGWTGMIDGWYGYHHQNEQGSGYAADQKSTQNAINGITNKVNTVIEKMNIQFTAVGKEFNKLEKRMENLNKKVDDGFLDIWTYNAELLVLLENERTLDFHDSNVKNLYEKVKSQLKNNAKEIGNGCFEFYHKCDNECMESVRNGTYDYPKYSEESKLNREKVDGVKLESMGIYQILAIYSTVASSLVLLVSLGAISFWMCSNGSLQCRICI

B1: GL20/39 BiS4 100/44 (bispecific antibody)
light: DIQMTQSPSSLSASVGDRVTITCRTSQSLSSYTHWYQQKPGKAPKLLIYAASSRGSGVPSRFSGSGSGTDFTLTISSLQPEDFATYYCQQSRTFGQGTKVEIKRTVAAPSVFIFPPSDEQLKSGTASVVCLLNNFYPREAKVQWKVDNALQSGNSQESVTEQDSKDSTYSLSSTLTLSKADYEKHKVYACEVTHQGLSSPVTKSFNRGEC
heavy: not shown
- Neutralization (IC50) [1]: 16.3 nM
- Neutralization (IC50) [2]: 11.9 nM
- Neutralization (IC50) [3]: 4.7 nM
- Neutralization (IC50) [4]: 20.6 nM
- Neutralization (IC50) [5]: 6 nM
- Neutralization (IC50) [6]: 15.9 nM
- Neutralization (IC50) [7]: 30.3 nM
- Neutralization (IC50) [8]: 37.3 nM
- Neutralization (IC50) [9]: 44.3 nM
- Neutralization (IC50) [10]: 75.8 nM
- Neutralization (IC50) [11]: 25.8 nM
- Neutralization (IC50) [12]: 16.5 nM
- Neutralization (IC50) [13]: 1.2 nM
- Neutralization (IC50) [14]: 7.8 nM
- Neutralization (IC50) [15]: 3.6 nM
- Neutralization (IC50) [16]: 9.5 nM
- Neutralization (IC50) [17]: 18.6 nM
- Neutralization (IC50) [18]: 10.6 nM
- Neutralization (IC50) [19]: 6.2 nM
- Neutralization (IC50) [20]: 4.4 nM
- Neutralization (IC50) [21]: 9.8 nM
- Neutralization (IC50) [22]: 2.1 nM
- Neutralization (IC50) [23]: 0.9 nM
- Neutralization (IC50) [24]: 5.3 nM
- Neutralization (IC50) [25]: 6.5 nM
- Neutralization (IC50) [26]: 3.3 nM
- Neutralization (IC50) [27]: 5.2 nM
- Neutralization (IC50) [28]: 18.3 nM
- Neutralization (IC50) [29]: 16.7 nM
- Neutralization (IC50) [30]: 28.5 nM
- Neutralization (IC50) [31]: 10.5 nM
- Neutralization (IC50) [32]: 10.3 nM
- Neutralization (IC50) [33]: 4 nM
- Neutralization (IC50) [34]: 5.2 nM
- Neutralization (IC50) [35]: 1.1 nM
- Neutralization (IC50) [36]: 3.1 nM
- Neutralization (IC50) [37]: 0.8 nM
- Neutralization (IC50) [38]: 0.9 nM
- Neutralization (IC50) [39]: 4.6 nM
- Neutralization (IC50) [40]: 17.1 nM
- Neutralization (IC50) [41]: 18.3 nM

B2: GL20 IgG (antibody, V domains shown)
VH: QVQLQQSGPGLVKPSQTLSLTCAISGDSVSSYNAVWNWIRQSPSRGLEWLGRTYYRSGWYNDYAESVKSRITINPDTSKNQFSLQLNSVTPEDTAVYYCARSGHITVFGVNVDAFDMWGQGTMVTVSS
VL: DIQMTQSPSSLSASVGDRVTITCRTSQSLSSYTHWYQQKPGKAPKLLIYAASSRGSGVPSRFSGSGSGTDFTLTISSLQPEDFATYYCQQSRTFGQGTKVEIK
- Neutralization (IC50) [1]: 13 nM
- Neutralization (IC50) [2]: 8.3 nM
- Neutralization (IC50) [3]: 4.4 nM
- Neutralization (IC50) [4]: 18.6 nM
- Neutralization (IC50) [5]: 7 nM
- Neutralization (IC50) [6]: 12.9 nM
- Neutralization (IC50) [7]: 19.2 nM
- Neutralization (IC50) [8]: 46.9 nM
- Neutralization (IC50) [9]: > 1000 nM
- Neutralization (IC50) [10]: > 1000 nM
- Neutralization (IC50) [11]: > 1000 nM
- Neutralization (IC50) [12]: > 1000 nM
- Neutralization (IC50) [13]: > 1000 nM
- Neutralization (IC50) [14]: > 1000 nM
- Neutralization (IC50) [15]: > 1000 nM
- Neutralization (IC50) [16]: 7.6 nM
- Neutralization (IC50) [17]: 10 nM
- Neutralization (IC50) [18]: 10.8 nM
- Neutralization (IC50) [19]: 4.2 nM
- Neutralization (IC50) [20]: 4.3 nM
- Neutralization (IC50) [21]: 10.5 nM
- Neutralization (IC50) [22]: 1.4 nM
- Neutralization (IC50) [23]: 0.9 nM
- Neutralization (IC50) [24]: 5 nM
- Neutralization (IC50) [25]: 4.8 nM
- Neutralization (IC50) [26]: 3 nM
- Neutralization (IC50) [27]: 3 nM
- Neutralization (IC50) [28]: 21.8 nM
- Neutralization (IC50) [29]: 16.3 nM
- Neutralization (IC50) [30]: 44.2 nM
- Neutralization (IC50) [31]: 14.2 nM
- Neutralization (IC50) [32]: 10.7 nM
- Neutralization (IC50) [33]: 4.2 nM
- Neutralization (IC50) [34]: 5.7 nM
- Neutralization (IC50) [35]: 1.1 nM
- Neutralization (IC50) [36]: 4.8 nM
- Neutralization (IC50) [37]: 0.9 nM
- Neutralization (IC50) [38]: 0.3 nM
- Neutralization (IC50) [39]: 6.8 nM
- Neutralization (IC50) [40]: 11.1 nM
- Neutralization (IC50) [41]: 7.4 nM
